Test results reported in patent US20250109201A1 (AGENUS, published 2025).
One block for each binder: values may come before it.

Tests used:
[1] = target: T1, ECD-His tagged human ILT2 haplotype PE01 (human, UniProt Q8NHL6 24-458); assay: SPR, captured antibody, ILT2 ECD-His analyte
T1 construct: also called Human ILT2 PE01 ECD; LILRB1/ILT2 PE01; not shown: His tag
Method: (§1) The binding affinity of anti-ILT2 antibody variants with IgG1 N297A constant regions to ECD-His tagged human ILT2 haplotypes PE01, PE02, PE03 (see Table 1) was assessed by surface plasmon resonance (SPR).
(§2) Briefly, SPR experiments were performed using a Biacore T200 instrument, and the association rate (Kₐ), dissociation rate (Kd), and dissociation constant (KD) were calculated from each experiment using a 1:1 binding model with Biacore™ T200 Evaluation Software. Capture of antibodies from the Human Fab Capture kit (28958325, GE Healthcare) to the Series S CM5 sensor chip (29149603, GE Healthcare) was performed using the immobilization wizard for amine coupling from the Biacore™ control panel and following the manufacturer's recommendations included with the kit.
(§3) Approximately 3 μg/mL of tested anti-ILT2 antibodies and controls diluted in a running buffer (10 mM HEPES, 150 mM NaCl, 3 mM EDTA, and 0.05% surfactant P20) were captured in individual flow cells of previously prepared anti Human Fab CM5 chip, keeping a single flow cell as a reference. Antibodies were captured using a 30 sec injection at a flow rate of 10 μL/min to reach about 150 resonance units (Rus). Human ILT2 ECD PE01 (diluted in the running buffer at the concentration of 30, 10, 3.3, 1.11, 0.37, 0.12 nM), and human ILT2 ECD PE02 and PE03 (diluted in the running buffer at the concentration of 33.3, 11.1, 3.7, 1.2, 0.41, 0.14 nM), were flowed over the chip surface at a flow rate of 30 μL/min with a 3-min association phase and a 10-min dissociation phase. The sensor chip was regenerated between cycles with a double 30-sec injection of 10 mM glycine, pH 2.1 at 30 μL/min followed by stabilization period of 60s. Sensorgrams were evaluated and fit to a simple Langmuir 1:1 interaction model using the global data analysis option of BIAevaluation 3.1 software. Data quality was verified by visually inspecting deviations and curve fitting, and by evaluating the parameters of Rₘₐₓ, Chi2, and Tc.

[2] = target: T2, ECD-His tagged human ILT2 haplotype PE02 (human, UniProt Q8NHL6 24-458); assay: SPR, captured antibody, ILT2 ECD-His analyte
T2 construct: also called Human ILT2 PE02 ECD; not shown: His tag
Method: as §1, §2, §3

[3] = target: T3, ECD-His tagged human ILT2 haplotype PE03 (human, UniProt Q8NHL6 24-458); assay: SPR, captured antibody, ILT2 ECD-His analyte
T3 construct: also called Human ILT2 PE03 ECD (Sino biological, 16014-H08H); not shown: His tag
Method: as §1, §2, §3

[4] = target: T4, human ILT2 extracellular and transmembrane domains expressed on CHO cells (human, UniProt Q8NHL6 24-482, limits assumed); assay: flow cytometry, CHO cells with low human ILT2
T4 construct: domain: extracellular and transmembrane domains; which one is told under assay; also called CHO cells expressing human ILT2 (relatively low or relatively high level); CHO-ILT2 cells
Method: For the antibody binding assay, the cells were seeded in a 96-well U-bottom tissue culture plate at a density of 3×10⁵ cells per well in 25 μL of PBS supplemented with 0.5% BSA, 1 mM EDTA and 0.05% sodium azide (FACS Buffer). The cells were incubated for 30 minutes at 4° C. with 25 μL of a series dilution of anti-ILT2 antibodies or isotype control, at final concentrations ranging from 10 μg/mL to 0.2 ng/mL in FACS Buffer.
After a 30-minute incubation in the dark at 4° C., the cells were washed twice with cold FACS Buffer, and the cells were analyzed by flow cytometry (BD LSR Fortessa Flow Cytometer). CHO cells were identified using a plot of forward scatter-area (FSC-A) versus side scatter area (SSC-A) and another plot of FSC-A versus forward scatter-height (FSC-H) for selection of single cells. Samples were analyzed by sequentially gating on the single cell population and plotting histograms representing the fluorescence in the PE channel. For each sample, mean fluorescence intensity (MFI) was calculated, and the data were plotted by GraphPad Prism software.

[5] = target: T5, full-length ILT2 expressed on Jurkat cells (human, UniProt Q8NHL6 24-650); assay: flow cytometry, Jurkat cells expressing human ILT2
T5 construct: whole, on cells; The Jurkat line also carries FcgRIIIa and an NFAT-luciferase reporter (Promega/G7102); also called Jurkat cells expressing human ILT2; ILT2-expressing Jurkat reporter cells

[6] = target: T6, recombinant human LILRA2/ILT1 (R&D Systems 9040-T4-050) (human, UniProt Q8N149 24-449); assay: SPR
T6 construct: Bought
From the text: (§4) Irrelevant antibody VRC01 IgG1 N297A was used as a negative isotype control.

[7] = target: T7, recombinant human LILRA4/ILT7 (Sino Biological 16058-H08H-50) (human, UniProt P59901 24-446); assay: SPR
T7 construct: Bought
From the text: as §4

[8] = target: T8, recombinant human LILRA5/ILT11 (Sino Biological 16059-H08H-100) (human, UniProt A6NI73 42-268); assay: SPR
T8 construct: Bought
From the text: as §4

[9] = target: T9, recombinant human LILRA6/ILT8 (Sino Biological 29813-H08H-50) (human, UniProt Q6PI73 24-447); assay: SPR
T9 construct: Bought
From the text: as §4

[10] = target: T10, recombinant human LILRB3/ILT5 (R&D Systems 9159-T5-050) (human, UniProt O75022 24-443); assay: SPR
T10 construct: Bought
From the text: as §4

[11] = target: T11, recombinant human LILRB4/ILT3 (Sino Biological 16742-H08H) (human, UniProt Q8NHJ6 22-259); assay: SPR
T11 construct: Bought
From the text: as §4

[12] = target: T12, recombinant human LILRB5/LIR-8 (Sino Biological 17221-H08H-100) (human, UniProt O75023 24-458); assay: SPR
T12 construct: Bought
From the text: as §4

[13] = target: T5, full-length ILT2 expressed on Jurkat …; assay: cell-based or functional assay
[14] = target: T1, ECD-His tagged human ILT2 haplotype PE01; assay: SPR, LILRA and LILRB family panel
From the text: as §4

[15] = target: T13, recombinant human LILRA1/LIR-6 (Sino Biological 17220-H08H-100) (human, UniProt O75019 17-461); assay: SPR, LILRA and LILRB family panel
T13 construct: Bought
From the text: as §4

[16] = target: T14, recombinant human LILRA3/ILT6 (Sino Biological 13549-H08H-100) (human, UniProt Q8N6C8 24-439); assay: SPR, LILRA and LILRB family panel
T14 construct: Bought
From the text: as §4

[17] = target: T4, human ILT2 extracellular and …; assay: flow cytometry, CHO cells with low human ILT2; remark: listed apart in the source
Method: (§5) CHO cells expressing relatively high and low levels of human ILT2 were seeded in a 96-well U-bottom tissue culture plate at a density of 2×10⁵ cells per well in 50 μL of PBS supplemented with 0.5% BSA, 1 mM EDTA and 0.05% sodium azide (FACS Buffer). The cells were incubated for 30 minutes at 4° C. with 50 μL of a series dilution of anti-ILT2 antibodies or isotype control (VRC01 IgG₄) at concentrations from 10 μg/mL to 0.2 ng/mL in FACS Buffer.
(§6) For antibody staining, the cells were washed three times with cold FACS Buffer and resuspended in FACS Buffer containing a FITC-conjugated mouse anti-human IgG₄ antibody (Southern Biotech/9190-02) at a final concentration of […]. After a 30-minute incubation in the dark at 4° C., the cells were washed three times and analyzed as above.

[18] = target: T4, human ILT2 extracellular and …; assay: flow cytometry, CHO cells with high human ILT2
Method: as §5, §6

T3 sequence (Q8NHL6 other isoform, or with tags, fused parts or gaps): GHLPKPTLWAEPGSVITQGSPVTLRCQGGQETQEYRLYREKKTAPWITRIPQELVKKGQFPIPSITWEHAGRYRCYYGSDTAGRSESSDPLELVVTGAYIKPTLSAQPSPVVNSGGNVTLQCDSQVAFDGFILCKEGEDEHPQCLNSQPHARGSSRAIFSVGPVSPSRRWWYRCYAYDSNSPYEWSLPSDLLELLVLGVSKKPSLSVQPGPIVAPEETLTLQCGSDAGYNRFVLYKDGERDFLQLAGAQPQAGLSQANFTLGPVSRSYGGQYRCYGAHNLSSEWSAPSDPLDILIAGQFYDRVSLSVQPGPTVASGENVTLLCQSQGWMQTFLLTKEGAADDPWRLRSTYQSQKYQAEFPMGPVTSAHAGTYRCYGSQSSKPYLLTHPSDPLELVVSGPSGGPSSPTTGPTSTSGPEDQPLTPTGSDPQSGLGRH
T1 sequence (Q8NHL6 24-458): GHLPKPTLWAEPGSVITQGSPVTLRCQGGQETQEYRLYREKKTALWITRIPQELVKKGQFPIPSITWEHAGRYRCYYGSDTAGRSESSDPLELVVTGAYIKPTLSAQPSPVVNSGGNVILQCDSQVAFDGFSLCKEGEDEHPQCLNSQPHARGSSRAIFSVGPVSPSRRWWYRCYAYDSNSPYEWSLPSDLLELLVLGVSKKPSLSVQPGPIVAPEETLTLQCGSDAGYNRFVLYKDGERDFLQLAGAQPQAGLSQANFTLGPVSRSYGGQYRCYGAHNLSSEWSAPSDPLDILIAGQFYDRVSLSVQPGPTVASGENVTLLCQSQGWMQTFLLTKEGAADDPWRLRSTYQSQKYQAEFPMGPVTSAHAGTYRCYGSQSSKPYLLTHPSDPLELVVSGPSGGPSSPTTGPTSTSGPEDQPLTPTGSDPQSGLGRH
T2 sequence (Q8NHL6 other isoform, or with tags, fused parts or gaps): as the sequence (Q8NHL6 24-458) above, with L45P, A70T, I119T, S132I counted along it
T5 sequence (Q8NHL6 24-650): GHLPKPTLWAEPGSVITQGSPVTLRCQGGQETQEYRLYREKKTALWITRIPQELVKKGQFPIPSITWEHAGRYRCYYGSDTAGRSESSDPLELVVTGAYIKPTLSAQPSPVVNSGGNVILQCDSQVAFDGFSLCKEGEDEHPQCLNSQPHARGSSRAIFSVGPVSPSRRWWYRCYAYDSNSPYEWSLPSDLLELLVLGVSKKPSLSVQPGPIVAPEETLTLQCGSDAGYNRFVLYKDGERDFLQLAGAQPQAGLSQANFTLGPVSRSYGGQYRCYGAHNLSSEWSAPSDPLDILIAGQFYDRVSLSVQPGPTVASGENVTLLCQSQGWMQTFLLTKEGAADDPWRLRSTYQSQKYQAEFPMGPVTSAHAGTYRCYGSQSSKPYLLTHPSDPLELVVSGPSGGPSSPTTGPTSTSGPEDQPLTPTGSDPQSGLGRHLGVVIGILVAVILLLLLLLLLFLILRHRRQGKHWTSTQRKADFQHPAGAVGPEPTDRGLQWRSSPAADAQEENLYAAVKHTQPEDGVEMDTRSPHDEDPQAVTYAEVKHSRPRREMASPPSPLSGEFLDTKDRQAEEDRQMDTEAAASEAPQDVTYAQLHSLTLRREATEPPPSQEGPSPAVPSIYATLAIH
T4 sequence (Q8NHL6 24-482 limits assumed): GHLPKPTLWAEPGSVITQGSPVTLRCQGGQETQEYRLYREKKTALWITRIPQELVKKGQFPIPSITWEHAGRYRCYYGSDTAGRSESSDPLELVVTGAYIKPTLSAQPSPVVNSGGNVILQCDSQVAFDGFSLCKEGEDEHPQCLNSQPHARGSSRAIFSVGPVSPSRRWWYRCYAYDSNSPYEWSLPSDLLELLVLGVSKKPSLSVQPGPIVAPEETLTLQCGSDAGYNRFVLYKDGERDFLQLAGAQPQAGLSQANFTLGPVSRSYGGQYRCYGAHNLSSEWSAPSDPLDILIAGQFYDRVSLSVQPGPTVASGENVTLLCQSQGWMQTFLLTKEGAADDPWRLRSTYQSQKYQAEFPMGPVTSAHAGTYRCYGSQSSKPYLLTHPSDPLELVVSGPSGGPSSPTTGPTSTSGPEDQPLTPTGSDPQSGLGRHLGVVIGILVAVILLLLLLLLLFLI
T6 sequence (Q8N149 24-449 limits assumed): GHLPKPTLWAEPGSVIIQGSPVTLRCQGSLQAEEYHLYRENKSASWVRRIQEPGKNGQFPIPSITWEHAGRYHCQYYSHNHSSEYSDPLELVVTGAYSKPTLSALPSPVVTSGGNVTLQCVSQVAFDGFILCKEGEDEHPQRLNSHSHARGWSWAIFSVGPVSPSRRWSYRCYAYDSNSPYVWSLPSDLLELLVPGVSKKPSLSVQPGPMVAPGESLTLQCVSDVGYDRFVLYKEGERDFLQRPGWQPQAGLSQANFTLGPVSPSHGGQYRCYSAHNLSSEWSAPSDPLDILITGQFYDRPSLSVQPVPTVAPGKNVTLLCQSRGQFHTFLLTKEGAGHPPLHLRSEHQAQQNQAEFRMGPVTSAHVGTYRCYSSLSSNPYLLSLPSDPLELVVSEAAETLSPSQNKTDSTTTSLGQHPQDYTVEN
T9 sequence (Q6PI73 24-447 limits assumed): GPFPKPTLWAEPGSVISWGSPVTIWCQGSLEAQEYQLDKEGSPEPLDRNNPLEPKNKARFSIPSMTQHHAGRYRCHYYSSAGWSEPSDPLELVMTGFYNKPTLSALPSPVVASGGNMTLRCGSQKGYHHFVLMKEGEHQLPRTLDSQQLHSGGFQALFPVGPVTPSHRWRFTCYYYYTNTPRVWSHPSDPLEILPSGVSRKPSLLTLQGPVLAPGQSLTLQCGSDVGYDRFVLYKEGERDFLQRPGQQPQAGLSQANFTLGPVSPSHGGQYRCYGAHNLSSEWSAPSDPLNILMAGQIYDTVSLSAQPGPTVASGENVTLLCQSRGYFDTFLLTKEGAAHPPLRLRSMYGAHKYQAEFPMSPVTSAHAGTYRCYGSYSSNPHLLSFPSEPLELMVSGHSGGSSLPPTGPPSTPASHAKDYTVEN
T8 sequence (A6NI73 42-268 limits assumed): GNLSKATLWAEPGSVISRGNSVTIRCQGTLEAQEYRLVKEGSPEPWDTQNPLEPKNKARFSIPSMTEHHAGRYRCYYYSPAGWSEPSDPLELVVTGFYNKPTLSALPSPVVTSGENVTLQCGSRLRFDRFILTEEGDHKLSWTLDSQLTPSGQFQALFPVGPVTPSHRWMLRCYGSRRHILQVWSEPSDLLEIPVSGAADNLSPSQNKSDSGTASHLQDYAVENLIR
T13 sequence (O75019 17-461 limits assumed): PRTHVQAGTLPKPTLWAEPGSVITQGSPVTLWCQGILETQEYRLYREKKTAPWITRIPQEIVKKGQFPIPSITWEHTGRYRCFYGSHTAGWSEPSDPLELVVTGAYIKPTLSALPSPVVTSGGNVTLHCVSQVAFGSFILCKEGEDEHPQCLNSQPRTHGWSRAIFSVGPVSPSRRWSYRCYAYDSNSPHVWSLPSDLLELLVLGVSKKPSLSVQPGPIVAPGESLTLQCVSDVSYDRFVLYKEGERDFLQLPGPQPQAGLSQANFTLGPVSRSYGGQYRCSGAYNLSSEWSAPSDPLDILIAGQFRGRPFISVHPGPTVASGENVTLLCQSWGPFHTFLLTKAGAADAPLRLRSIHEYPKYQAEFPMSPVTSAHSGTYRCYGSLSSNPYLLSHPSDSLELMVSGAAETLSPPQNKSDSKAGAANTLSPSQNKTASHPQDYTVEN
T7 sequence (P59901 24-446 limits assumed): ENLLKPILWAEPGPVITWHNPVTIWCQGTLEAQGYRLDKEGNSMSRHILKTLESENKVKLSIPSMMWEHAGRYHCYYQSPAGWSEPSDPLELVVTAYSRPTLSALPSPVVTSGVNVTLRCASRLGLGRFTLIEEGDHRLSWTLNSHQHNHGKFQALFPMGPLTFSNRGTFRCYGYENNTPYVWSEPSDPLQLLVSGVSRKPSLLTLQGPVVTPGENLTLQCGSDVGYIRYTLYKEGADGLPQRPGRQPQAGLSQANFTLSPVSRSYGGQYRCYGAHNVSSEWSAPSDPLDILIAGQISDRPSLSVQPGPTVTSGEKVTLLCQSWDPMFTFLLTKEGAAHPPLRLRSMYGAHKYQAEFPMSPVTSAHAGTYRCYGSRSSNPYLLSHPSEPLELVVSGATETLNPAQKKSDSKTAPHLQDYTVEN
T14 sequence (Q8N6C8 24-439 limits assumed): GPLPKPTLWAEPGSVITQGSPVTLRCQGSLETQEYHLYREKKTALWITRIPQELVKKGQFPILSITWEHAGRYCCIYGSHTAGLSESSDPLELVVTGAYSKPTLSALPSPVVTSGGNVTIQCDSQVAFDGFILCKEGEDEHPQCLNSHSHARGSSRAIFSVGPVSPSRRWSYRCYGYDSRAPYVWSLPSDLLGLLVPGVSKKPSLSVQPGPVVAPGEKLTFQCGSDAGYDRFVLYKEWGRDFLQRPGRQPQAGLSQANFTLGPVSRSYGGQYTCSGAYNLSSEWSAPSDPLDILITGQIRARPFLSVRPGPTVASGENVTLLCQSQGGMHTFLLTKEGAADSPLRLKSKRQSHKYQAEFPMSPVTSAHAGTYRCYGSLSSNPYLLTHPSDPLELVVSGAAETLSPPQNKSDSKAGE
T12 sequence (O75023 24-458 limits assumed): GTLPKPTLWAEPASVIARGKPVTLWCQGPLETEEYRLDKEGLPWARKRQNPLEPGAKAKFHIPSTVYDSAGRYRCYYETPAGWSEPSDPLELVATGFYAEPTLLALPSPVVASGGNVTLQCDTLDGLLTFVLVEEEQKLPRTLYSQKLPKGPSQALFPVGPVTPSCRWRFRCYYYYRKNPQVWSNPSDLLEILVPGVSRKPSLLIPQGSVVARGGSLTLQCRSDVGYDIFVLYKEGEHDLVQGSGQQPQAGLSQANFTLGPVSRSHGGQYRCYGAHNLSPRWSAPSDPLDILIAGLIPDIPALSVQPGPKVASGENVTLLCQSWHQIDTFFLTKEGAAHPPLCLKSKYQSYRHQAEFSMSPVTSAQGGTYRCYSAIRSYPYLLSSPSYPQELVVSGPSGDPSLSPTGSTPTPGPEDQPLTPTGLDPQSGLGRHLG

- Kd [1]: 0.033 nM
- koff [1]: 1.1e-05 s⁻¹
- kon [1]: 320000 M⁻¹ s⁻¹
- Kd [2]: 0.63 nM
- koff [2]: 0.00015 s⁻¹
- kon [2]: 230000 M⁻¹ s⁻¹
- Kd [3]: 0.149 nM
- koff [3]: 7.5e-05 s⁻¹
- kon [3]: 500000 M⁻¹ s⁻¹
- AUC [4]: 13600
- EC50 [4]: 0.175 µg/mL
- AUC [5]: 189000
- EC50 [5]: 0.11 µg/mL
B1: BA213 (antibody, human IgG1, kappa, N297A, V domains shown)
VH: QVQLVQSGAEVKKPGASVKVSCKASGYTFNRYYMHWVRQAPGQGLEWMGWINPYTGGTNYAQKFQGRVTMTRDTSISTAYMELSRLRSDDTAVYYCASKQPSSDYWGQGTLVTVSS
VL: not shown

- Kd [1]: 0.185 nM
- koff [1]: 6.7e-05 s⁻¹
- kon [1]: 360000 M⁻¹ s⁻¹
- Kd [2]: 0.617 nM
- koff [2]: 0.00014 s⁻¹
- kon [2]: 230000 M⁻¹ s⁻¹
- Kd [3]: 0.317 nM
- koff [3]: 8.5e-05 s⁻¹
- kon [3]: 270000 M⁻¹ s⁻¹
- AUC [4]: 14400
- EC50 [4]: 0.078 µg/mL
- AUC [5]: 199000
- EC50 [5]: 0.07 µg/mL
B2: BA216 (antibody, human IgG1, kappa, N297A, V domains shown)
VH: B1 VH
VL: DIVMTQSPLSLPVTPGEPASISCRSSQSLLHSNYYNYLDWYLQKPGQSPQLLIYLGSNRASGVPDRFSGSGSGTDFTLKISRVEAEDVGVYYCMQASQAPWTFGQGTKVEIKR

- binding result [6]: no binding
- binding result [7]: no binding
- binding result [8]: no binding
- binding result [9]: no binding
- binding result [10]: no binding
- binding result [11]: no binding
- binding result [12]: no binding
- FcγRIIIa-NFAT luciferase signaling, EC50 [13]: 0.43 µg/mL
- Kd [14]: 10 nM
- Kd [15]: 21 nM
- Kd [16]: 24 nM
- EC50 [17]: 0.019 µg/mL
- EC50 [18]: 0.155 µg/mL
B3: 15G8 (Reference antibody) (antibody, V domains shown)
VH: DVQLQGSGPGLVKPSETLSLTCSVTGYSITSGYYWNWIRQFPGKKLEWMGYISYDGSNNYNPSLKNRITISRDTSKNQFSLKLNSVTAADTATYYCAHGYSYYYAMDAWGQGTSVTVSS
VL: DIQMTQSPSSLSASVGDRVTITCRTSQDISNYLNWYQQKPGKAVKLLISYTSRLHSGVPSRFSGSGSGTDYTLTISSLQPEDFATYYCQQGNTLPTFGQGTKLEIK
